From the DeepSol protein solubility set

Test: soluble on expression in E. coli; label from the status in PepcDB or PDB records

Sequence | soluble on expression in E. coli
MSLAPIRLALIEGLSGPFANAGEAVDRNLRIAIEGVNARGGVRLPDGRHPLALVRFDSKNMVDESLLQLQAASDAGIRFVLQGNSSAAAAALSASIARHNDRAPDARMLFLNYAAVDPALTNEACSFWHFRFDASADMRMHALTEVIRADPSVKQVYLIGQDYTFGRQVAQLARRQLGEKRPDIAIAGEVLHPIGKVKDFAPYVARIAASGADAVITGNWGNDLTLLVKAARDAGLKARFFTFYGNSLGAPGAMGEAGVGRVVAVAEWHPNLGGTGSDAFYKAFRARYPAPVDDYPLLRDQMMIDLLATAIERAGTTEAGAVARALEGASLDTGFHRLTLRAEDHQAIQPLVVMQMARAGTPGAPFDIEGSGYGFRTLKVIPPAQTALPTTCRMARYEGHHHHHH | soluble
MSLAPPVRSLHIGTVAGFTADPQHLDRIAIHLPALNLPDSLIFARLSKPWASHASGFCFYPEPGDEVVVGFIDSDPRYPMILGALHNPKNTAPFPPDEKNNRKGLIVSQADQTQALMIDTEEKTLRLMAGDNTLTLTGEGNLTMSTPNALQLQADTLGLQADSNLSIAGKQQVEITSAKINMKEGHHHHHH | soluble
MSLAREDYAAQVALLVRVLPYVAKEEIFALKGGTAINLFYRDLPRLSVDIDLTYLPVKDRAESLVEINDAMDRIAAAIEGGITGAKAQRIAGGGGGATRALARLGTAEIKIETSPVTRGVVHDPEQREVSEAVEEEFGYATMNIVSFEDLFGGKLHAALDRQHPRDLYDVKLLYENEGFTDELFRTFLIYVASSPRPPHELLNPNLIDLDQPYAREFEGMTKEAVDLAELIATRDRLIGDIQSRLNDDAKRFLRTLHEGDPDFDAIDRPQGAGLPAVRWKLINVNNPNKNAQAAFTGAVVELLPFCGEGHHHHHH | not soluble
MSLARHRGKTEKLYVIPLGGLGEIGKNCMVVQYGDDIIVIDAGLAFPEEEMLGIDIVIPDFTYLLENREKVRGILITHGHEDHIGAVAYLLRNINIPVYATRLTLGLIEGKLAEMGMKLPAESKAVRAGDQVKLGPFTCEFIRVNHSIPDACAIAVTTPVGTILHTGDFKFDQTPIDGEFADYRRLTELGKRGILALLSDSTNAERPGYTPSERSVRPNMERVFREAKGRILMATFASNVHRIQQAIELAAEMGKKVAVVGRSMENTVRIALELGYLNVPEGTMVTVDELRRVPLNQQVILTTGSQGEPMAALSRMAVNDHKAIELYPGDTVLFAATAIPGNEKSVARTVNNLYRRGAEVIYDRSAGVHVSGHASQEEQKLMINLTRPKFFVPIHGEYRMLLKHKQLAEACGIPSENILIGENGTIFEFTRNSAQITGKVTSGQVLVDGLGVGDVGNIVLRDRKQLAQEGILIVVVAVDREEGTIVGGPDMVSRGFVYVRESEGLLDEAKERVKRALADQMQRGLPEWAVLKSSIRDVLSKYLYDKTHRRPMILPIIIEIEGHHHHHH | soluble
MSLARLKVKVWGEYACFSRPEFKVERVSYPVPTPSAARGLLEAIFWKPEFRYEVRRIGVLRLGTPFALLRNEVGNRMGAKPFFVEDARQQRTSLVLKDVAYLVEADMVLRPHATDPLPKYLEQFERRLKKGQYHHTPYLGTREFPAYFSPPDGEVPDGGLNLDLGPMLFDLAFVEDPGRPELTFKRPGRGEVQGYALPLFFHARIREGWLEVPAEKYQELYRLEEGHAKGAEGHHHHHH | soluble
MSLARPQLTILHCGKLIDGHSKNTKKVVSIIVEKNTIVDIADGYVDPGEGDLAIDLNGYTVLPGLMDMHVHLSGESNPKRYTERFTMDLDDYAYRSIAYAKRTLMAGFTTVRDLGGPINTSLRDAINNNQVVGPRVYSAGKAIATTGGHADPTNGMKFELMGDPGPAEGVVNGIAEARKAVRQRYKNGADLIKITATGGVLSVAKNGENPQFQEDEIRAIVETATDYGMHVAAHAHGAEGMKRAVRAGVRSIEHGTLMDEETMALMKEKGTYYIPTISAGEFVAEKAEIDGYYPDIVRPKAKKIGPQIKKTFQKAYDAGVSIAFGTDSGVSYHGDNAKEFAYMVEAGMSEIEAIISATKTAAELLEISNTLGTIEKDKLADIIAVEGDPIENIVALESVVFVMKNGVIYKNGDNEGHHHHHH | soluble
MSLASEILPDEFLELFKDLKKPPKKLHYKGNLSLLKQDKIAIIGSRRMSVYTKNCVFSLASMLKNAHLCVVSGGALGVDITASMAAMPNTIGIFANGLDQIYPRTNEKIIKQIYENALALSEYEDDYLPKNYDFLLRNRLVIALSKAVVVAQADIKSGSMQSAKLALELNKPLYVLPQRLGESTATNLLLKENKAKLICDFKEFVSEFASIDMNQDEFLEFCKKGVSVDEALKIYGQKVYEYELEGKISIEGLFIRVLAEGHHHHHH | soluble
MSLASIMFGVFVHALECSRPVGLVQAKLLLWTLTASIMVIILSEEGEVAEQLEFFPVQSPCRGICQSDERGFCRGCFRSRDERFNWNKMSDGEKQEVLRLCRQRLMRKLRANKPASSDEPEQPSLFEGHHHHHH | not soluble
MSLASKPSLLFVDDSKVMRLAADKMLGREFRVEVAENGLQAWTMVCHNPSISVVFSDLAMPEMDGFALLKKIRTSEDEGVAGLPVIIVTGAENDDEARAEALRLGGTDFISKPFNSTDLLARARAHANYQNERKEFAKQAMIDPLTRLGNRRYLLHRLRQELALAARQQYRLSVVQLEICQFNQLFVQLGKKRTDMVLLKLAQSLRGVIRKEDSLARSSVAQFTVLLPSAGPNGAKRFVERALKVSERLAFQFRGKVQRLPLTVIIHTPAVHAGLAPRQVQLALEEQLKQARKLGPGTVLSDDADTTLSVDESAPILTIEQALVLLRAGKPRAVVSALPDLERQLAPLLELMKRSASDQEGHHHHHH | not soluble
MSLASRQAIGFIAPSLAGEFMTGVMEGILQSLRKHQYDLIAVQGAPQHLINNQLAKQHIKAWIVIIDPTGLNELATNMPAVVISAPNAGERFPLVMPDNNQSARAMVEHLIEHGHSKIAFVGNFNNSDMRDRYTVYCDVLNEHSITPNPAWVVDVGDYTEGRTEHAFYPLIANGLNFSAVVAANDQQAVGVMMALETKGYRVPHDMAVVGFDDATIAQHANPPLTTVRQQPQLLGSIAADTVIELIAGKPVSNAPIYVPTIPIWRQSCGCKDVYTGIKEGHHHHHH | not soluble
MSLASTFKFLVTSDNHLGYQERDSRRGDDSFTTFEECLRAARLEHEVDAILLAGDFFHDNKPSLGCLARTSSLLRSYVLGDKPISFTLLSDPKRNFPTHPVPLANFQDPNINVALPIFMIHGNHDDPVGGTSSIDILSTAGLVNYFGHTSSLDDIVVEPVLLKKGDTYIALYGLGNVRDDRLHRCFRMKKLHFVQPKTEPGKDWFKILLFHQNRGVRSGGNMKCGIYETMLAGHGMDLVIWGNEHEQQMEPSPSEGFDIIQPGSTILTSLSEHECNPKKYGVLEVRGGSYRVTGFPLRSIRPVVRRTVELWRDNPGCRTLDAVEDFLRSVVEQMIEEAEEQVSRIPDDVLKFHPNIKFPIMRLAVDFTDPDSTTFPQPNINRFGQQYMDIVVNPSELLRPIKPKQVPRVASSASATGGEAPVVPVPRLNTSDIRTKVAEVFNANARDACSLLSESEVSAAVYAFAEKGERDAIDERICELLSKCQKSVWVSMRREGHHHHHH | soluble
MSLATIDSMNKDTTRLSDGPDWTFDLLDVYLAEIDRVAKLYRLDTYPHQIEVITSEQMMDAYSSVGMPINYPHWSFGKKFIETERLYKHGQQGLAYEIVINSNPCIAYLMEENTITMQALVMAHACYGHNSFFKNNYLFRSWTDASSIVDYLIFARKYITECEERYGVDEVERLLDSCHALMNYGVDRYKRPQKISLQEEKARQKSREEYLQSQVNMLWRTLPKREEEKTVAEARRYPSEPQENLLYFMEKNAPLLESWQREILRIVRKVSQYFYPQKQTQVMNEGWATFWHYTILNHLYDEGKVTERFMLEFLHSHTNVVFQPPYNSPWYSGINPYALGFAMFQDIKRICQSPTEEDKYWFPDIAGSDWLETLHFAMRDFKDESFISQFLSPKVMRDFRFFTVLDDDRHNYLEISAIHNEEGYREIRNRLSSQYNLSNLEPNIQIWNVDLRGDRSLTLRYIPHNRAPLDRGRKEVLKHVHRLWGFDVMLEQQNEDGSVELLERCPPRMGNLEGHHHHHH | soluble
MSLATIKDIARRAGVIPSTVNRTLKDNPSISKETKAKVRAAMDELGYVPNSAAQMLATGLTHSLGVVLPPLTDRENISQPFYMEIITAINEEASSNSQVVSIATGATLEELVKQVELMHRQKRADGFIILYSETNDPVKDYLLKEKVPSVVVGAAVDNNDKVTYIDNDNKELGQEAVNFLRAKGHQKIGFVTDDLFGQVGQEHYQGYIEATNEFNLETYPELVFSSRVIDSLIESLQSYQLTALIVKDDLIALRFIHWLNNQGIRIPEDYAIISFNNSIFAEIMYPFLTTYDINIKELGKESVQRLLDLLKNPQTKAQKITIPFRLIERESVSMGEGHHHHHH | soluble
MSLATISKITVQKKAKQRYNVFIGKPGAERFAFSVDEAILVKYGLRKGLELDENEIKALIEADELKKTHHLALHYLSYRMRTEKEIRDYLKEKDRLDEHIEKTIVSLKAEKLIDDRAFAEAFARSKTAQTLIGPNKIRQQLLQKGVNAEAMAKALSPYQIKWQIDVLTAWLDKQERRAVNRRESNEQLKQKRTHQLLAKGFEYEAIQAALANREANEDNEWEALVYQGEKLLKSYVKKYNGRELTYKLKQALYRKGFALSKIDRFLQTEMEGEEGHHHHHH | soluble
MSLATPDRLTIVNQYVDNVLTKAGDHYHGQSPTPLLADGVDPRTGKQMEWIFPDGRHAVLSNFSAQQNLMRVLVGLSNLSGNPSYKQRAEAIVKYHFQHYQDESGLLIWGGHRFVDLKTLQPEGPSEKEMVHELKNAYPYYDLMFSVDKDATARFIRGFWNAHVYDWKIMETSRHGKYGQKIGALWQSPFEQQPPFFATKGLSFLNAGNDLIYSASLLYKYNKEDGALVWAKRLAQQYVLPRDKATGLGVYQFTQALKRDETTDDADTHSKYGDRAQRQFGPEFGPTALEGNMMLKGRTSTIYSENALMQLQLGKDLGAEGKELLTWTTDGLKAFAKYAYNESDNTFRPMLANGKDLSNYVLPRDGYYGKKGTVIKPYPADNSFLLSYARAYTVLPDAELWRVARGIARAQGLGELGSAPGKDVKVDLATKNNDPYALFALLDLYQASKVKDYLSLAEKVGDNIISTRYQNGFFMAEPNRQYADVDTIEPYALLALEAAVRNQPQSVAPFLNGAGFTEGGYRMEDGSTRVSTRDNEIFLLNVGETLKPNNKKEGHHHHHH | soluble
MSLATVLVTGATGFIGSHVVEALAPRHDVVGLASSVYPSPRDAVRHVRMTLPHPDLEELVATLRPDVVVHCAGVASVGLSMHSPGVDFQSGPPVVFQLFDAIRKAGLASKVVLLSSAAVYGNPQSLPVGEDAPRAPISPYGWHKGMCEDIAQEFHGTYGIRSAVLRIFSCYGAGLRKQLLWDAAHKLLEGAFVFDGTGDETRDFIHVRDVAAFVTRLVEGWPDGGCVVCNVASGEATRIADLLALLPEAFGLSGVVPVFTGRVRGGDPHHWRADISRARQMGLAPAVSLEEGVREYATWFFAVTGGEGHHHHHH | soluble
MSLATVPTRSGSPRQLTTKQTGDAWEAQARRWLEGKGLRFIAANVNERGGEIDLIMREGRTTVFIEVRYRRSALYGGAAASVTRSKQHKLLQTARLWLARHNGSFDTVDCRFDVVAFTGNEVEWIKDAFNDHSEGHHHHHH | soluble
MSLAVNLTEKTAEQLPDIDGIALYTAQAGVKKPGHTDLTLIAVAAGSTVGAVFTTNRFCAAPVHIAKSHLFDEDGVRALVINTGNANAGTGAQGRIDALAVCAAAARQIGCKPNQVLPFSTGVILEPLPADKIIAALPKMQPAFWNEAARAIMTTDTVPKAASREGKVGDKHTVRATGIAKGSGMIHPNMATMLGFIATDAKVSQPVLQLMTQEIADETFNTITVDGDTSTNDSFVIIATGKNSQSEIDNIADPRYAQLKELLCSLALELAQAIVRDGEGATKFITVRVENAKTRDEARQAAYAVARSPLVKTAFFASDPNLGRLLAAIGYAGVADLDTDLVEMYLDDILVAEHGGRAASYTEAQGQAVMSKAEITVRIKLHRGQAAATVYTCDLSHGYVSINADYRSEGHHHHHH | soluble
